Assay results published in US20240374685A1, “METHODS OF TREATING LOCALLY ADVANCED OR METASTATIC PANCREATIC ADENOCARCINOMA USING AXL DECOY RECEPTORS AS FIRST-LINE THERAPY” (Aravive Inc, priority 2021, published 2024).

Experiments:
[1] = system: metastatic pancreatic adenocarcinoma; settings: cited from earlier work
GAS6 = target: T1, GAS6 (Homo sapiens, UniProt Q14393); assay: Binding affinity to GAS6
T1 sequence (Q14393 31-678): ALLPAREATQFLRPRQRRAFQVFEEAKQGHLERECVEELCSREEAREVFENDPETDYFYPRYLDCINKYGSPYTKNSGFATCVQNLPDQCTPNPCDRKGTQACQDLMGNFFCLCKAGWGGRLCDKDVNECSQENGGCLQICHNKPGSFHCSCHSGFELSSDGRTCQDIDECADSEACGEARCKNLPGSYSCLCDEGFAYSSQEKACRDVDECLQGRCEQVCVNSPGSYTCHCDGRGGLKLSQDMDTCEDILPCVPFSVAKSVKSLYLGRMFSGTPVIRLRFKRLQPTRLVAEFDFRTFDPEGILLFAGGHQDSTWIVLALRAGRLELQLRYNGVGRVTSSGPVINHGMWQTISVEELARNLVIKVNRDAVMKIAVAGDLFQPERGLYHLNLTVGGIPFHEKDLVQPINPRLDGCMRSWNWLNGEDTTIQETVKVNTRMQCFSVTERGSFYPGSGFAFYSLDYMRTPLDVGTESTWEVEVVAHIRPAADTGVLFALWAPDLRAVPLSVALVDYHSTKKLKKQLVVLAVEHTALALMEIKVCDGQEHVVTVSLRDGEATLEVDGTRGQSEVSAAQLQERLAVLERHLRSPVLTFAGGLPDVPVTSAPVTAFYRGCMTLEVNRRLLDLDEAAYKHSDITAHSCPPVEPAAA

highly metastatic cells = assay: AXL signaled invasion and migration in vitro; type: cell-based
aggressive human cancers [2] = assay: Preclinical (nonclinical) tumor models; type: in vivo, mouse
[3] = Pharmacokinetics in the cynomolgus monkey; type: in vivo; settings: IV
Description: The pharmacokinetics (PK) and toxicokinetics of AVB-S6-500 and pharmacodynamics (PD) of growth arrest specific-6 protein (GAS6) have been investigated in mice (intraperitoneal [IP] and intravenous [IV] routes) and monkeys (IV route) following single and repeat dosing. The PK profile of AVB-S6-500 is compatible with target-mediated drug disposition (TMDD) with 2 parallel elimination paths: normal clearance of IgG and second order that is saturable and fits the typical 2-compartment model. […] Using the TMDD model (Dirks, N. A., Clinical Pharmacokinetics, 633-659, 2010), the human dose estimated to be efficacious may range from 1 mg/kg (to ensure GAS6 levels remain at least 90% less than baseline) to 20 mg/kg (to ensure 99% abrogation of GAS6 and allowing for a 3-fold increase in GAS6 levels in patients with cancer relative to normal levels). This model was used to select first-in-human dosing, and an external validation showing good agreement between projections and clinical observations has been published (Bonifacio, L., Clinical and Translational Science, 1-8, 2019).

mouse = assay: 3-month mouse toxicity study; type: in vivo
Description: There were no clinical observations, no changes in urinalysis parameters, no ophthalmology signs, and no macroscopic or microscopic observations of significance related to the administration of AVB-S6-500 at doses up to the NOAEL of 200 mg/kg/week.

monkey = assay: 3-month monkey toxicity study; type: in vivo
healthy volunteers = assay: First-in-human Phase 1 single ascending dose and repeat-dose study; type: in vivo
Description: Single dose cohorts of 1, 2.5, 5, and 10 mg/kg were evaluated as well as 1 RD cohort dosed with 5 mg/kg once weekly for 4 weeks.

[4] = system: platinum-resistant, recurrent ovarian cancer; assay: Ph1b trial in platinum-resistant, recurrent ovarian cancer; type: in vivo, human
Description: AVB-S6-500 was evaluated in a Ph1b trial in combination with either paclitaxel or pegylated liposomal doxorubicin in subjects with platinum-resistant, recurrent ovarian cancer. Fifty-three subjects were dosed with AVB-S6-500 at doses ranging from 10 to 20 mg/kg once every 2 weeks in combination with their physician-chosen chemotherapy. […] All infusion reactions have been Grade 1 or 2, none met serious criteria, and all resolved without sequelae.

[5] = system: pancreatic (PDA1-1) models; assay: Pancreatic mouse models; type: in vivo
aggressive human cancers [6] = settings: cited from earlier work
[7] = system: locally advanced, recurrent, or metastatic 1L pancreatic adenocarcinoma; assay: Phase 1b study of AVB-S6-500 plus nab-paclitaxel and gemcitabine
Description: The AVB-S6-500 volume is adjusted according to the subject's weight and diluted prior to infusion.
On days when all three drugs are administered, the sequence of administration is AVB-S6-500 infusion first followed by at least a 30-minute observation period, then nab-paclitaxel immediately followed by gemcitabine. AVB-S6-500 (15 mg/kg) will be administered by a 1-hour IV infusion on Days 1 and 15 of each 28-day cycle. Subjects will receive premedication with anti-H1 antagonists (anti-H1) and anti-H2 antagonists (anti-H2) (steroids optional) prior to administration of AVB-S6-500 to reduce the risk and severity of infusion reactions. Nab-paclitaxel (125 mg/m2) will be administered by a 30-40-minute IV infusion on Days 1, 8, and 15 of each 28-day cycle. Immediately following nab-paclitaxel, gemcitabine (1000 mg/m2) will be administered by a 30-minute IV infusion on Days 1, 8, and 15 of each 28-day cycle. Appropriate premedication with corticosteroids, diphenhydramine, and H2 antagonists (as per institutional practice, with IV antihistamines and steroids strongly recommended) should be administered prior to administration of nab-paclitaxel and gemcitabine.
The Ph1b portion of this study is a multicenter, open-label, single treatment arm group design to evaluate the safety, tolerability, and preliminary efficacy of AVB-S6-500 in combination with nab-paclitaxel and gemcitabine in subjects with locally advanced, recurrent, or metastatic 1L pancreatic adenocarcinoma.

[8] = clinical data from prior studies of AVB-S6-500
[9] = number of the 5 subjects at 15 mg/kg, with chemotherapy

Nc1ccn([C@@H]2O[C@H](CO)[C@@H](O)C2(F)F)c(=O)n1 [gemcitabine]
OS ([1]; 861 subjects randomized): 6.7 months | Sepsis ([1]; all grades): 2% | Fatal events ([1]; in vivo): 4% | median progression-free survival ([1]; in vivo): 3.7 months | pneumonitis ([1]; in vivo): 1% | proportion of patients with SAEs ([1]; in vivo): 43% | response rate according to independent review ([1]; in vivo): 7%

AVB-S6-500: soluble AXL variant polypeptide fusion protein comprising an Fc domain, a linker, lacks a functional FN domain, SEQ ID NO: 2
apparent affinity to GAS6 (GAS6): 93-324 femtomolar | higher affinity than wild-type (WT) AXL (GAS6): approximately 200 fold | AXL signaled invasion and migration (highly metastatic cells): dramatically reducing AXL signaled invasion and migration | effect on tumor cells in vivo (aggressive human cancers [2]; dosing 4-7 days after tumor inoculation, small tumors established in the mouse): regression of tumor cells | metastatic disease (aggressive human cancers [2]; preclinical models of aggressive human cancers): inhibiting metastatic disease | clearance ([3]; doses above 5 mg/kg): lower | half-life ([3]; doses above 5 mg/kg): longer | volume of distribution ([3]; doses above 5 mg/kg): larger | clearance ([3]; doses below 5 mg/kg): high | half-life ([3]; doses below 5 mg/kg): short | mortalities (mouse; mouse, in vivo): no mortalities | NOAEL (mouse; twice-weekly slow bolus IV infusion): 200 mg/kg/week | no-observed-adverse-effect-level (NOAEL) (mouse; twice-weekly slow bolus IV infusion, 25, 50, 100 mg/kg): at least 100 mg/kg/dose | clinical pathology changes (monkey; monkey, in vivo): non-dose-dependent clinical pathology changes seen and those were consistent with an immune response in monkeys to the human AVB-S6-500 protein | mortalities (monkey; monkey, in vivo): no mortalities | NOAEL (monkey; once-weekly 30-minute IV infusion, 50, 100, 150 mg/kg): at least 150 mg/kg/dose | maximum tolerated dose (MTD) (healthy volunteers; human, in vivo): not reached | dose related AEs or SAEs (healthy volunteers; in vivo): no dose related AEs or SAEs | tolerability (healthy volunteers; single 1, 2.5, 5, 10 mg/kg, 5 mg/kg weekly for 4 weeks, IV over 60 minutes): well tolerated at all doses | dose-limiting toxicities ([4]; 10 to 20 mg/kg every 2 weeks with paclitaxel or pegylated liposomal doxorubicin, 53 subjects): No dose-limiting toxicities were observed | grade of infusion reactions ([4]; all infusion reactions): Grade 1 or 2 | toxicity, anemia [4, 8]: 21% | toxicity, fatigue [4, 8]: 26% | toxicity, infusion reaction [4, 8]: 21% | toxicity, nausea [4, 8]: 13% | complete response (CR) [4, 9]: 1 | partial responses (PRs) [4, 9]: 2 | metastatic tumor weight and number ([5]; PDA1-1 models, combined with gemcitabine): Significant reductions | fibrosis ([5]; combined with gemcitabine): substantially decreased | survival ([5]; combined with gemcitabine): prolonged | metastasis development ([5]; monotherapy): decrease in metastasis development | direct cytotoxicity (tumor cells): not directly cytotoxic | toxicity in pharmacology studies (aggressive human cancers [6]; mouse, in vivo): no toxicity | antitumor efficacy compared with other anti-AXL small molecules in clinical development (aggressive human cancers [6]; nonclinical models): superior antitumor efficacy | patients with Grade 4 or 5 adverse effects ([7]; AVB-S6-500 related, N = 21): no patients | AEs Leading to AVB-S6-500 Treatment Discontinuation, events ([7]; N = 21): fatigue and sepsis | AVB-S6-500-Related Deaths ([7]; N = 21): no AVB-S6-500 related deaths | AEs Leading to AVB-S6-500 Treatment Discontinuation ([7]; patients (% of N = 21)): 2 | AEs of Special Interest (Infusion Related Reactions) ([7]; patients (% of N = 21)): 3 | Grade 3 Adverse Effects Related to AVB-S6-500 ([7]; patients (% of N = 21)): 6
